Experimental data reported in article PMC5436757, “In vivo and in vitro characterization of DdrC, a DNA damage response protein in Deinococcus radiodurans bacterium”.

Experiments:
DdrC [1] = biological target: T1, DdrC (Deinococcus radiodurans R1 ATCC 13939, UniProt Q9RYE6 1-231); assay: EMSA; same efficiency as 37% GC 81-mer; DdrC 0.175-2.8 uM; Buffer A: 40 mM Tris-HCl pH 7.8, 5 mM MgCl2, 1.5 mM DTT, 50 mM NaCl, 12% glycerol; 4 C (15 min stated for plasmid/viral DNA); gels run at 4 C; conditions: protein: recombinant; tags: C-terminal 6xHis (pET26b); label: 5' Cy5
T1 sequence: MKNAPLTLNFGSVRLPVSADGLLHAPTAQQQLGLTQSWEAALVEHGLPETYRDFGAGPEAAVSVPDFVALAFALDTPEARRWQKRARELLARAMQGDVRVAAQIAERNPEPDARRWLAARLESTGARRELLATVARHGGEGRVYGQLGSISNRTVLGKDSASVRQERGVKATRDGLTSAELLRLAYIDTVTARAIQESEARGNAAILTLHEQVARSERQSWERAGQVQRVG

DdrC [2] = biological target: T1, DdrC; assay: EMSA; discrete complex band appears at 40 nM DdrC; 3.3 nM DNA; Buffer A: 40 mM Tris-HCl pH 7.8, 5 mM MgCl2, 1.5 mM DTT, 50 mM NaCl, 12% glycerol; 4 C (15 min stated for plasmid/viral DNA); gels run at 4 C; conditions: protein: recombinant; tags: C-terminal 6xHis (pET26b)
DdrC [3] = biological target: T1, DdrC; assay: EMSA; same efficiency as 65.4% GC 81-mer; DdrC 0.175-2.8 uM; Buffer A: 40 mM Tris-HCl pH 7.8, 5 mM MgCl2, 1.5 mM DTT, 50 mM NaCl, 12% glycerol; 4 C (15 min stated for plasmid/viral DNA); gels run at 4 C; conditions: protein: recombinant; tags: C-terminal 6xHis (pET26b); label: 5' Cy5

B1: 81-mer 65.4% GC (ssDNA)
DNA: GTTGCTGGACGTACAGCGCCACTATGGCCGCCTGGGCTGGACCAGCGGCGAGATTCCGTCCGGGGGCTACCAGTTTCCCAT
B1: binds (DdrC [1]).

B2: oligo-67 ss (ssDNA)
DNA: CTGTTTAAGAAATTCACCTCGAAAGCAAGCTGATAAACCGATACAATTAAAGGCTCCTTTTGGAGCC
B2: binds (DdrC [2]).

B3: 81-mer 37% GC (ssDNA)
DNA: GATTACCACGAGGAGTATCTTAAGAATTCTGATATACTTGAAGAAGACATACAGGAACAAGAACAAAGACTGAACGAGCTT
B3: binds (DdrC [3]).
